This is an account of results in patent US12692310B2, “ASIC1 channel antagonist antibody” (ShanghaiTech University, priority 2019, dated 2026).

The EC50 is the concentration needed to bring the measured effect to its halfway point. High values mean weaker potency, low ones greater potency. In general, Kd refers to the concentration at which binding is half-saturated.

Positions count from the first letter of the chain named. Read-outs that look alike come from different tables or passages of the source. No end group written: not given here.

The target in one assay is T1, hASIC1a (Homo sapiens, UniProt P78348).
T1 construct: expressed in transfected cells
T1 sequence (P78348 1-528): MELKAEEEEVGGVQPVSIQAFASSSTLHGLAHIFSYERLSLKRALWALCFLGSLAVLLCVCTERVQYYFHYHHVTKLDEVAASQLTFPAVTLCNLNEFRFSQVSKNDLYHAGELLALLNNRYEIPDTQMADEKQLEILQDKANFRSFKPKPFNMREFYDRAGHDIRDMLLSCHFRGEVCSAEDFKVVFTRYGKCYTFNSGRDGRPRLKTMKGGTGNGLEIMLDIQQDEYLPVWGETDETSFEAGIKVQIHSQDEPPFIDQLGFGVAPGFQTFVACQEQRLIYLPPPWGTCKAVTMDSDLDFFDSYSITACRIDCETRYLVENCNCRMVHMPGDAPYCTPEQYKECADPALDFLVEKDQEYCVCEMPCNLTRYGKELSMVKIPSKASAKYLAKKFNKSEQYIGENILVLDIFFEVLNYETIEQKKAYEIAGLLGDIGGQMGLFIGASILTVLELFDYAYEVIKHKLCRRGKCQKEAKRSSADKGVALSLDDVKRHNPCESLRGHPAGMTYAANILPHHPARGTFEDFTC
Description: Whole-cell patch clamp, acid-induced hASIC1a currents in stable CHO-K1 cells. The format is cell-based. How it is done:
Electrophysiological Experiments. The inward cellular ASIC1a current was recorded from a single cell using standard whole-cell recording techniques by a patch-clamp amplifier (Axon 200B; Axon Instruments). Membrane currents were sampled and analyzed using a Digidata 1320A interface and a personal computer with Clampex and Clampfit software (Version 9.0.1; Axon Instruments). For a typical experiment, the extracellular fluid (ECF) used contained 150 mM NaCl, 5 mM KCl, 10 mM HEPES, 10 mM D-glucose, 2 mM CaCl2, and 1.0 mM MgCl2, with the osmotic pressure in the range of 320-335 mOsm, and pH 7.4 adjusted with 5 M NaOH. Patch electrodes (4-6 MΩ) contained 30 mM NaCl, 120 mM KCl, 0.5 mM CaCl2, 1 mM MgCl2, 10 mM HEPES, 2 mM MgATP, and 5 mM EGTA (pH 7.2 adjusted with 5 M KOH) at 300 mOsm. The ASIC1a activating ECF is identical to the normal ECF, except that MES was used to replace HEPES to maintain the ECF at pH 6.0. A coverslip with discretely distributed individual CHO-ASIC1a stable cells (6H7) on the surface was placed into a recording chamber under a constant perfusion (~2-3 mL/min) generated by an ALA 8 channel perfusion system (ALA Scientific Instruments Inc.) mounted on an inverted microscope. After achieving the break-in (whole-cell) configuration, the cell was voltage clamped at a holding potential of −70 mV. The normal ECF (pH 7.4) was first perfused onto the patched cell, and then, the activating ECF of pH 6.0 was rapidly applied to elicit a maximum inward ASIC1a current as control current. When testing the inhibition effect of the antibody, ECFs of pH 7.4 containing different concentrations of ASC06-IgG1 were perfused from low to high concentration into the recording chamber for 10-15 min. To measure the inhibition of the current, the activating ECFs of pH 6.0 containing the corresponding concentrations of the testing antibodies were applied to the same patched 6H7 cell to generate the inward currents that can be normalized to the control current of the same cell. […] Data acquired from four to five cells were used for statistical calculation of inhibition effects.
The function of ASC06-IgG1 was characterized using electrophysiology approach. The effect of ASC06-IgG1 antibody on the acid-induced, hASIC1a-mediated electrical current in cells was analyzed. PcTx1 was used as a positive control. […] The amplitudes of the hASIC1a-mediated inward currents of the stable cells were recorded and quantitated in the absence and presence of ASC06-IgG1, with venom peptide PcTx1 (100 nM) used as positive control. […] Unlike the sustained inhibition with the antibody after washing, the inhibition with PcTx1 could be readily washed out within 5 minutes (FIG. 5C).

Assay [1] relates to MCAO-induced ischemic stroke model mice. Description: Middle cerebral artery occlusion (MCAO)-induced ischemic stroke model. The following applies: 4 μL i.c.v. 3 h after ischemia; 100 nM PcTx1 or 3.0 μg/μL ASC06-IgG1; 24 h after injection. The class given is in vivo, mouse. The procedure:
The Middle Cerebral Artery Occlusion (MCAO) Model. Animal care and the experimental protocols were approved by the Animal Ethics Committee of Shanghai Jiao Tong University School of Medicine, Shanghai, China. A transient ischemic stroke in the left brain hemisphere was established in male mice (C57 BL/6, 20-25 g) using middle cerebral artery occlusion (MCAO) for 1 h before reperfusion. Three hours after ischemia, a total of 4 μL of vehicle solution (PBS) in the absence or presence of neuroprotective agents) 100 nM PcTx1 or 3.0 μg/μL endotoxin-free ASC06-IgG1 ([…])) was administered by an intracerebroventricular (i.c.v.) injection on the contralateral side of the brain hemisphere. An irrelevant endotoxin-free antibody (3.0 μg/μL, […]) was used as isotype control. […] Mice were sacrificed 24 h after the i.c.v. injection. […] The infarct area was calculated by subtracting the normal area stained with TTC in the ischemic hemisphere from that of the nonischemic hemisphere. The infarct volume was calculated by summing infarction areas of all sections and multiplying by slice thickness.
To determine if the protective effect of antibody ASC06-IgG1 in vitro could be extended to pathologies in vivo, the middle cerebral artery occlusion (MCAO) model was used to study the antibody's neuroprotective effect. […] The infarct volume of the cortex and striatum were calculated 24 hours after the injection. […]

The target in assay [2] is T2, hASIC1a-eYFP (human, UniProt P78348 1-528).
T2 sequence (looked up): T1 sequence (P78348 1-528)
Description: cell-based or functional assay.

The target in a further assay is T3, hASIC1a-mCherry (human, UniProt P78348 1-528).
T3 sequence (looked up): T1 sequence (P78348 1-528)
In words: cell-based or functional assay.

In assay [3] the target is T2, hASIC1a-eYFP. Description: flow cytometry on 6H7 cells (stable hASIC1a-eYFP), Alexa555 secondary antibody. In general terms: In flow cytometry, cells or beads pass a laser one at a time.
Description: In the flow cytometry-binding experiments, ASIC1a-eYFP-expressing stable cells (6H7) were collected and resuspended in ice cold FACS buffer (PBS, 0.05% BSA, 2 mM EDTA). […] After incubating at 4° C. for 15 min, the cells were washed twice and resuspended in the FACS buffer. Cells were sorted and analyzed on a flow cytometer (CytoFLEX S; Beckman Culter) to determine relative binding level by the antibodies to the stable cell lines overexpressing hASIC1a. Mean fluorescent intensities of Alexa555 in eYFP-positive cells were recorded and analyzed to calculate the apparent binding affinity of antibody.
In assay [4] the target is truncated hASIC1a (amino acids 13-464) (human) (UniProt P78348). In words: SPR (Biacore T200), single cycle kinetics, Flag-tagged ΔhASIC1a captured on anti-Flag chip, antibody as analyte.
In the next assay the target is T4, hASIC2a-eYFP (human, UniProt Q16515 1-512).
T4 construct: whole, on cells; Transiently expressed on CHO-K1 cells; not shown: eYFP fusion
T4 sequence (looked up): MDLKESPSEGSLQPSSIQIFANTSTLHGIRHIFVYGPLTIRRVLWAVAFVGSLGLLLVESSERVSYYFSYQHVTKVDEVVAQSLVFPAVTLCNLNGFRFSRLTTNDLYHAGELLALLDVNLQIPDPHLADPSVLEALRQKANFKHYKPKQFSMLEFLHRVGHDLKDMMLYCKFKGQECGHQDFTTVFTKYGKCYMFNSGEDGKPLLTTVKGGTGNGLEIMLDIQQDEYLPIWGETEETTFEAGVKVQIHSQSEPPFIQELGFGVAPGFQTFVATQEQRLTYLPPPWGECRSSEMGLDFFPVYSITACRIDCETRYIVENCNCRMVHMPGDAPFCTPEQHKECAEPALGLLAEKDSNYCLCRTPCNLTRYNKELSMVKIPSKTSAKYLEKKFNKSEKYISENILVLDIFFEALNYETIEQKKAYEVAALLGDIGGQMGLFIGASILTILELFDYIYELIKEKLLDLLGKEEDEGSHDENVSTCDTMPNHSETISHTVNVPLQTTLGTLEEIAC
Description: flow cytometry, CHO-K1 cells transiently transfected with hASIC2a-eYFP, Alexa555-conjugated ASC06-IgG1.

A further assay has as its target T5, hASIC3a-eYFP (human, UniProt Q9UHC3 1-531).
T5 construct: whole, on cells; Transiently expressed on CHO-K1 cells; not shown: eYFP fusion
T5 sequence (looked up): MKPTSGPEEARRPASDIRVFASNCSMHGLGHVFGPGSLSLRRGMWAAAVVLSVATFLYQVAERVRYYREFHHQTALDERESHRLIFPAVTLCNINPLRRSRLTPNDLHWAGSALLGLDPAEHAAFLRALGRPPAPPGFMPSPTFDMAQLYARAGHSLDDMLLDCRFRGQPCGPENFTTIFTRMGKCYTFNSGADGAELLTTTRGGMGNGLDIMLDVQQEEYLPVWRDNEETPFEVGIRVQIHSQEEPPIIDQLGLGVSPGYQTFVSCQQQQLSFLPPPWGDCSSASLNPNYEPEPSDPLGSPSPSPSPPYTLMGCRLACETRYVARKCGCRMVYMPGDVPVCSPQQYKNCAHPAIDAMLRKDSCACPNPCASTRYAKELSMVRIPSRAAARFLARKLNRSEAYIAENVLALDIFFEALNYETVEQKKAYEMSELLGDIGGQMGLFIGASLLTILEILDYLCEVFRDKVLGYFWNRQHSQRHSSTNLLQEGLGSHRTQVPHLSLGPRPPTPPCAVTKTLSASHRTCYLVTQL
In words: flow cytometry, CHO-K1 cells transiently transfected with hASIC3a-eYFP, Alexa555-conjugated ASC06-IgG1.

The target in assay [5] is T6, hASIC1a Y318A mutation (hASIC1a-eYFP) (human, UniProt P78348 1-528).
T6 construct: whole, on cells; Transiently expressed on CHO-K1 cells; not shown: eYFP fusion
T6 sequence (looked up): T1 sequence (P78348 1-528) with Y318A
In words: flow cytometry, CHO-K1 cells transiently transfected with hASIC1a Y318A-eYFP, ASC06-IgG1 and labelled second antibody.

For another assay, the target named is hASIC1b-eYFP (human) (UniProt P78348). Description: flow cytometry, CHO-K1 cells transiently transfected with hASIC1b-eYFP, Alexa555-conjugated ASC06-IgG1; eYFP-positive cells without antibody signal: Q1-LR(49.22%).
The next assay addresses hASIC2a/2b-eYFP (human) (UniProt Q16515). In words: flow cytometry, CHO-K1 cells transiently transfected with hASIC2a/2b-eYFP, Alexa555-conjugated ASC06-IgG1; eYFP-positive cells without antibody signal: Q1-LR(27.09%).
Assay [6] has as its target truncated hASIC1a (amino acids 13-464) (human) (UniProt P78348).

Description for hASIC2a-eYFP: 10,000 cells were sorted.
(§1) The CHO-K1 cells were transiently transfected with these plasmids.
Description for hASIC3a-eYFP: 10,000 cells were sorted.
as §1

Consider “Psalmotoxin-1 [PcTx1, reference compound]”, for which the “inhibition of the acid-induced current, in words” value with hASIC1a (100 nM, positive control) is recorded as “nearly complete inhibition”. Besides, the “time for inhibition to be washed out” value in the assay with hASIC1a (washout experiment) was at most 5 min. Moreover, the “infarct volume (compared with the contralateral brain region)” value in [1] is “about 17%”.

B1: ASC06-IgG1 (antibody, V domains shown)
VH: QVQLQQSGGGLVQPGGSLRLSCAASGFTFSSYAMSWVRQAPGKGLEWVSAISGSGGSTYYADSVKGRFTISRDNSKNTLYLQMNSLRAEDTAVYYCAKDSFYGYSKGDWGQGTLVTVSS
VL: QSALTQPASVSGSPGQSITISCTGTSSDVGAYNYVSWYQQQPGKAPKLMIYGVSNRPSGVSNRFSGSKSGNAASLTISGLQAEDEADYYCSSYTSSSTYVFGTGTKLTVLG
notes: also called full length (ASC06-IgG1); ASC06-lgG1
Take B1: in the assay with hASIC1a-eYFP [2], the “apparent IC50 of inhibition of acid (pH 6.0)-induced currents, whole-cell patch clamp on the hASIC1a stable cell line” value is 85 nM. Also, in the assay with hASIC1a-mCherry, the “IC50 of inhibition of acid-induced calcium influx, FLIPR assay on 4C12 cells” value worked out at 2.9 nM. In the assay with hASIC1a-eYFP [3], this molecule came in with an EC50 of 2.06 nM. The molecule further displayed a Kd in [4] of 7.9 nM. For the same molecule, the binding result (in the assay with hASIC2a-eYFP; in the assay with hASIC3a-eYFP; in assay [5]) was “no binding” in each case. The percent of cells in quadrant Q1-UR (Alexa555 and eYFP double-positive) was found to be 0.15% with hASIC1b-eYFP (human) and 0.11% with hASIC2a/2b-eYFP (human).

B2: venom peptide PcTx1 fused with Fc (PcTx1-Fc) (Fc fusion)
chain: EDCIPKWKGCVNRHGDCCEGLECWKRRRSFEVCVPKTPKT
modifications: ends and bridges not checked; also: fused with Fc, isotype, linker and order not given here
Regarding B2, the Kd in assay [6] is 1 nM.
